According to publication PMC5454392, “Selective BET bromodomain inhibition as an antifungal therapeutic strategy” (Nature Communications, 2017):
Numbered stars: 1 amine (or outer) side, 2 acyl side, 3 side chain; on linkers, the order of the positions; unused ones are H or OH. Square brackets hold non-standard residues; d marks the D form. Ends that are not written are not given here. Arg(Me2a) = CN(C)C(=N)NCCC[C@H](N)C(=O)O; Kac = CC(=O)NCCCC[C@H](N[*:1])C(=O)[*:2]; Lys(Me3) = C[N+](C)(C)CCCC[C@H](N)C(=O)O; Arg(Me2s) = CN=C(NC)NCCC[C@H](N)C(=O)O; pT = C[C@@H](OP(=O)(O)O)[C@H](N)C(=O)O; Lys(Me2) = CN(C)CCCC[C@H](N)C(=O)O; pS = N[C@@H](COP(=O)(O)O)C(=O)O; Lys(Me) = CNCCCC[C@H](N)C(=O)O; Me2a = not defined here

Experiments:
[1] = biological target: T1, CaBdf1 BD1 (GST-tagged, wild-type) (Candida albicans (strain SC5314 / ATCC …, UniProt Q5A4W8)); assay: histone peptide array (Active Motif MODified), 1 uM GST-tagged bromodomain, anti-GST detection, normalized mean intensity
T1 chain: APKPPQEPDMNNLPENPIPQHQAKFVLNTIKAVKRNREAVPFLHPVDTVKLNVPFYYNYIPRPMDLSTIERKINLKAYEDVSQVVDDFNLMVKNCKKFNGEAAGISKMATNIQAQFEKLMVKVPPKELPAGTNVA

[2] = biological target: T2, CaBdf1 BD2 (GST-tagged, wild-type) (Candida albicans (strain SC5314 / ATCC …, UniProt Q5A4W8)); assay: as above
T2 chain: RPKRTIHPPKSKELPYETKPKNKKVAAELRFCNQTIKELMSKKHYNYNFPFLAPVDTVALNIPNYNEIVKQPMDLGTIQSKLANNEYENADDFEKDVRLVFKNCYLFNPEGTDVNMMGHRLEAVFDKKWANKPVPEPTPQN

Binder	binding score [1]	binding score [2]
A[Arg(Me2s)][pT]KQTARKSTGGKAPRKQ	0.00326	0.00074
A[Arg(Me2a)]T[Lys(Me)]QTA[Arg(Me2s)][Lys(Me)]STGGKAPRKQ	0.00471	0.0037
PRKQLATKAARK(Me2)[pS]APATGG	0.0029	0.00074
ARTKQTARKSTGGKAPRKQ (A R T K Q T A Rme2s Kme1 S pT G G K A P R K Q)	0.0029	0.00407
SGRGKGGKGLGKGGAKRHR (pS G R G Kac G G K G L G K G G A K R H R)	0.0167	0.00555
PRKQLATKAARK(Ac)[pS]APATGG	0.0029	0.00148
PRKQLATKAAR(Me2a)K(Ac)[pS]APATGG (reading uncertain)	0.0058	0.00222
SGRGKGGKGLGKGGAKRHR (S G Rme2a G Kac G G Kac G L G Kac G G A K R H R)	0.236	0.375
SGRGKGGKGLGKGGAKRHR (S G Rme2s G Kac G G Kac G L G Kac G G A K R H R)	0.175	0.332
A[Arg(Me2s)][pT]K(Me)QTARKSTGGKAPRKQ	0.00181	0.0037
PDPAK(Ac)SAPAPKKGSKKAVT	0.00363	0
A[Arg(Me2s)]TK(Ac)QTA[Arg(Me2a)][Lys(Me)]STGGKAPRKQ	0.00834	0.00296
A[Arg(Me2s)]T[Lys(Me)]QTA[Arg(Me2a)][Lys(Me3)]STGGKAPRKQ	0.0058	0.00592
PRKQLATKAA[Arg(Me2a)]K[pS]APATGG	0.00435	0.00407
A[Arg(Me2a)]T[Lys(Me2)]QTAR[Lys(Me2)]STGGKAPRKQ	0.00399	0.00222
SGRGK(Ac)QGGKARAK(Ac)AKSRSS	0.109	0.0859
AR(Me2s)TK(Me)QTAR(Me2a)K(Me)STGGKAPRKQ (reading uncertain)	0.00435	0.00222
ARTKQTARKSTGGKAPRKQ (A Rme2s T Kme1 Q T A Rme2s Kac S T G G K A P R K Q)	0.0344	0.00555
A[Arg(Me2a)][pT][Lys(Me3)]QTARKSTGGKAPRKQ	0.00725	0.00074
ARTKQTARKSTGGKAPRKQ (A R T K Q T A R Kme3 pS T G G K A P R K Q)	0.00363	0.00333
PRKQLATKAAR(Me2s)KSAPATGG	0.00616	0.0037
ARTKQTARKSTGGKAPRKQ (not fully specified)	0	0.00259
ARTKQTARKSTGGKAPRKQ (A R T Kme2 Q T A Rme2s Kac S T G G K A P R K Q)	0.0305	0.00592
ARTKQTARKSTGGKAPRKQ (A Rme2s T Kme2 Q T A Rme2a Kme2 S T G G K A P R K Q)	0.0029	0.00666
ARTKQTARKSTGGKAPRKQ (A Rme2s pT Kme3 Q T A R K S T G G K A P R K Q)	0.00363	0.00185

Binder	binding score [1]	binding score [2]
SGRGKGGKGLGKGGAKRHR (S G Rme2a G Kac G G K G L G K G G A K R H R)	0.0105	0.00703
PRKQLATKAAR(Me2a)K(Me)[pS]APATGG (reading uncertain)	0.0029	0.00703
ARTKQTARKSTGGKAPRKQ (A R T K Q T A Rme2s Kme2 S pT G G K A P R K Q)	0.00906	0.00259
ARTKQTARKSTGGKAPRKQ (A Rme2a T Kme3 Q T A Rme2a Kme3 S T G G K A P R K Q)	0.00399	0.00333
ARTKQTARKSTGGKAPRKQ (A Rme2s T Kme3 Q T A Rme2s Kme2 S T G G K A P R K Q)	0.0029	0.00407
PDPAKSAPAPKKG[pS]KKAVT	0.00326	0.00148
ART[Lys(Me3)]QTARKSTGGKAPRKQ	0.00399	0.00148
ARTKQTARKSTGGKAPRKQ (A R T K Q T A R K pS T G G K A P R K Q)	0.00181	0.00074
PRKQLATKAARK[pS]APATGG	0.00218	0.00555
ARTKQTARKSTGGKAPRKQ (A R T Kac Q T A Rme2a Kac S T G G K A P R K Q)	0.0464	0.0126
ARTKQTARKSTGGKAPRKQ (A Rme2s T Kac Q T A R Kme3 S T G G K A P R K Q)	0.00616	0.00259
ARTKQTARKSTGGKAPRKQ (A R T K Q T A R K pS T G G Kac A P R K Q)	0.0301	0.0107
A[Arg(Me2a)]T[Lys(Me)]QTAR[Kac]STGGKAPRKQ	0.0359	0.00592
ARTKQTARKSTGGKAPRKQ (A Rme2a T Kac Q T A R Kme2 S T G G K A P R K Q)	0.0112	0.00407
ARTKQTARKSTGGKAPRKQ (A Rme2s T Kac Q T A Rme2a Kme3 S T G G K A P R K Q)	0.00471	0.00407
ARTK(Me)QTAR(me2s)K(Me)STGGKAPRKQ	0.00689	0.00592
[pS]GRGKQGGK(Ac)ARAK(Ac)AKSRSS	0.0642	0.00592
SGRGKQGGK(Ac)ARAKAKSRSS	0.0276	0.00814
PRKQLATKAARKSAPATGG (P R K Q L A T K A A Rme2a Kme3 S A P A T G G)	0.00363	0.00703
PDPAK(Ac)SAPAPKKG[pS]K(Ac)KAVT	0.0656	0.174
ARTKQTARKSTGGKAPRKQ (A R T K Q T A Rme2a Kme2 pS T G G K A P R K Q)	0.00471	0.00259
ARTKQTARKSTGGKAPRKQ (A Rme2s T Kac Q T A Rme2a Kac S T G G K A P R K Q)	0.0573	0.00851
ARTKQTARKSTGGKAPRKQ (A R T Kme3 Q T A Rme2s Kme2 S T G G K A P R K Q)	0.00254	0.00407
[pS]GRGKQGGKARAK(Ac)AKSRSS	0.0906	0.02
AR(me2s)TK(Me)QTARKSTGGKAPRKQ	0.00326	0.00037
